Columns and labels:
[1] = system: HeLa Kyoto; assay: melting temperature (median over replicates), in situ; higher = more thermally stable
[2] = system: HeLa Kyoto; assay: thermal stability score vs G1/S (z-score of summed log2 fold changes over temperatures); higher = more thermally stable than in G1/S
[3] = system: HeLa Kyoto; assay: solubility in G1/S (NP-40 vs SDS abundance) (log2 ratio); higher = more soluble; settings: cell cycle stage: G1/S
[4] = system: HeLa Kyoto; assay: solubility change mitosis vs G1/S (difference of NP-40 vs SDS log2 ratios) (log2 ratio difference); higher = more soluble in mitosis
[5] = cell cycle stage: early G1 (4.5 h after nocodazole release)
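Wherever melting temperature (median over replicates), in situ is given: HeLa Kyoto cells synchronized by double thymidine or nocodazole block, proteins quantified by TMT10plex mass spectrometry, three independent biological replicates.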
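Wherever solubility change mitosis vs G1/S (difference of NP-40 vs SDS log2 ratios) is given: synchronized HeLa Kyoto cells (double thymidine block for G1/S, nocodazole release for mitosis), protein amounts in NP-40 versus SDS lysates quantified by mass spectrometry, three biological replicates.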
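Wherever solubility in G1/S (NP-40 vs SDS abundance) is given: HeLa Kyoto cells arrested at G1/S by double thymidine block, proteins quantified by TMT10plex mass spectrometry in mild NP-40 versus SDS extracts, three biological replicates.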
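Wherever thermal stability score vs G1/S (z-score of summed log2 fold changes over temperatures) is given: synchronized HeLa Kyoto cells, proteins quantified by TMT10plex mass spectrometry, three biological replicates, mitosis taken 0.5 h after nocodazole release, G1/S directly after double thymidine block.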

Sequence of ALDH16A1 (chain, as listed by the source): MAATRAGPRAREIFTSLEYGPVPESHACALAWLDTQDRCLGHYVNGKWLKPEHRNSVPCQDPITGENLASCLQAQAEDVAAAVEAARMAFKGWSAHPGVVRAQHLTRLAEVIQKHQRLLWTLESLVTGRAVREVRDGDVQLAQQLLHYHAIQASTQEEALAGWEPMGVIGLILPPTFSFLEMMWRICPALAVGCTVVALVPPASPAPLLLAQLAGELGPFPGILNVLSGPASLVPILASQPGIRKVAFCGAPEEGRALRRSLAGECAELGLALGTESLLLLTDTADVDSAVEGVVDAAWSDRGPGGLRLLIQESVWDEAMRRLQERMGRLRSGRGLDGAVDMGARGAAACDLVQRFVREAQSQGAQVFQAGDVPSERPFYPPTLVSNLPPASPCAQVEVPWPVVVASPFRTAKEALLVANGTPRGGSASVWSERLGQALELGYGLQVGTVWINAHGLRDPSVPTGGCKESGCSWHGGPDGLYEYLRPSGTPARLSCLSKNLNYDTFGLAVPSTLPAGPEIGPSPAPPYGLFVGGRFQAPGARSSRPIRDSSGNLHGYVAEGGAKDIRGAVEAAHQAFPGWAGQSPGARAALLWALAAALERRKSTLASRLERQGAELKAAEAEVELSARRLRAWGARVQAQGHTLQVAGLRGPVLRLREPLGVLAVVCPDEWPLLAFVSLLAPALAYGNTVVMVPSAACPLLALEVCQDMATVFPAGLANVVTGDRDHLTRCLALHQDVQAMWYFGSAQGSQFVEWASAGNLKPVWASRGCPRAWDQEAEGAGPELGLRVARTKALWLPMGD

| Substance | melting temperature ([1]; cell cycle stage: G1/S) | melting temperature ([1]; cell cycle stage: mitosis) | thermal stability score [2, 5] | thermal stability score ([2]; cell cycle stage: mitosis) | solubility in G1/S (log2) [3] | solubility change mitosis (log2) [4] |
| --- | --- | --- | --- | --- | --- | --- |
| MATRSPGVVISDDEPGYDLDLFCIPNHYAEDLERVFIPHGLIMDRTERLARDVMKEMGGHHIVALCVLKGGYKFFADLLDYIKALNRNSDRSIPMTVDFIRLKSYCNDQSTGDIKVIGGDDLSTLTGKNVLIVEDIIDTGKTMQTLLSLVRQYNPKMVKVASLLVKRTPRSVGYKPDFVGFEIPDKFVVGYALDYNEYFRDLNHVCVISETGKAKYKA [HPRT1] | 58.5 °C | 59.7 °C | -0.74 | -3.12 | 0.209 | -0.113 |
| MSGCDAREGDCCSRRCGAQDKEHPRYLIPELCKQFYHLGWVTGTGGGISLKHGDEIYIAPSGVQKERIQPEDMFVCDINEKDISGPSPSKKLKKSQCTPLFMNAYTMRGAGAVIHTHSKAAVMATLLFPGREFKITHQEMIKGIKKCTSGGYYRYDDMLVVPIIENTPEEKDLKDRMAHAMNEYPDSCAVLVRRHGVYVWGETWEKAKTMCECYDYLFDIAVSMKKVGLDPSQLPVGENGIV [APIP] | 59.3 °C | 57.6 °C | -1.32 | -2.26 | 0.253 | -0.078 |
| MTDGILGKAATMEIPIHGNGEARQLPEDDGLEQDLQQVMVSGPNLNETSIVSGGYGGSGDGLIPTGSGRHPSHSTTPSGPGDEVARGIAGEKFDIVKKWGINTYKCTKQLLSERFGRGSRTVDLELELQIELLRETKRKYESVLQLGRALTAHLYSLLQTQHALGDAFADLSQKSPELQEEFGYNAETQKLLCKNGETLLGAVNFFVSSINTLVTKTMEDTLMTVKQYEAARLEYDAYRTDLEELSLGPRDAGTRGRLESAQATFQAHRDKYEKLRGDVAIKLKFLEENKIKVMHKQLLLFHNAVSAYFAGNQKQLEQTLQQFNIKLRPPGAEKPSWLEEQ [ARFIP2] | 51.1 °C | 50.9 °C | -0.945 | -2.87 | 0.602 | 0.0365 |
| ALDH16A1 | 58 °C | 56.3 °C | -4.57 | -4.01 | 0.152 | -0.043 |
| MASGNARIGKPAPDFKATAVVDGAFKEVKLSDYKGKYVVLFFYPLDFTFVCPTEIIAFSNRAEDFRKLGCEVLGVSVDSQFTHLAWINTPRKEGGLGPLNIPLLADVTRRLSEDYGVLKTDEGIAYRGLFIIDGKGVLRQITVNDLPVGRSVDEALRLVQAFQYTDEHGEVCPAGWKPGSDTIKPNVDDSKEYFSKHN [PRDX2] | 55 °C | 55.1 °C | -3.24 | -3.32 | 0.354 | 0.0464 |
| MDPLGDTLRRLREAFHAGRTRPAEFRAAQLQGLGRFLQENKQLLHDALAQDLHKSAFESEVSEVAISQGEVTLALRNLRAWMKDERVPKNLATQLDSAFIRKEPFGLVLIIAPWNYPLNLTLVPLVGALAAGNCVVLKPSEISKNVEKILAEVLPQYVDQSCFAVVLGGPQETGQLLEHRFDYIFFTGSPRVGKIVMTAAAKHLTPVTLELGGKNPCYVDDNCDPQTVANRVAWFRYFNAGQTCVAPDYVLCSPEMQERLLPALQSTITRFYGDDPQSSPNLGRIINQKQFQRLRALLGCGRVAIGGQSDESDRYIAPTVLVDVQEMEPVMQEEIFGPILPIVNVQSLDEAIEFINRREKPLALYAFSNSSQVVKRVLTQTSSGGFCGNDGFMHMTLASLPFGGVGASGMGRYHGKFSFDTFSHHRACLLRSPGMEKLNALRYPPQSPRRLRMLLVAMEAQGCSCTLL [ALDH3B1] | 52.2 °C | 51.8 °C | 0.958 | 1.14 | 0.252 | -0.152 |
